Measured values taken from the supplement of paper PMC10567573.

B1: OAS1 (parent)
chain: LTVYAWERGSMKTHFNTAQGFRTV
B2: ATE1 (parent)
chain: YGSFHQQYWLDGKIIAVGVIDILP

Variants of: B1
Experiment: protein stability index of a GFP-peptide fusion (GPS, HEK-293T) (PSI 1-6); higher = more stable
Details: c terminus: a fixed tail appended
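Also: lentivirally expressed fusions sorted by FACS into six bins by GFP to DsRed ratio, PSI derived from sequencing read proportions per bin multiplied by bin number.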

Variant | protein stability index
T17K | 2.48
T17N | 1.72
T17Y | 2.64
T17Q | 4.87
T17E | 1.61
T17S | 3.12
T17H | 2.95
T17L | 2.17
T17I | 3.17
T17M | 1.74
T17F | 2.25
T17D | 2.33
T17G | 2.67
T17P | 2.2
T17C | 1.78
T17W | 2.1
T17A | 1.69
T17R | 2.38
F21I | 2.09
F21M | 1.9
F21E | 2.1
F21P | 2.33
F21N | 2.87
F21A | 1.9
F21H | 1.74

Variant | protein stability index
F21G | 1.4
F21S | 2.42
F21T | 1.96
F21L | 2.67
F21D | 2.09
F21V | 1.82
F21K | 2.27
F21C | 2.35
F21R | 1.82
F21Q | 1.65
F21W | 2.21
F21Y | 2.9
A18W | 2.73
A18F | 2.56
A18S | 1.2
A18M | 2.79
A18T | 2.39
A18D | 4.02
A18H | 3.09
A18R | 2.84
A18N | 2.63
A18G | 2.64
A18C | 1.88
A18K | 2.67
A18L | 4.32

Variant | protein stability index
A18E | 1.54
A18I | 4.47
A18Y | 4.24
A18V | 3.42
A18Q | 2.79
G9Y | 2.93
G9W | 2.69
T23P | 2.61
T23M | 3.15
T23N | 3.21
T23Y | 1.32
T23R | 1.4
T23S | 2.78
T23L | 2.25
T23G | 2.76
T23K | 2.39
T23Q | 1.9
T23A | 1.8
T23I | 2.69
T23H | 3.17
T23F | 2.29
T23D | 3.86
M11L | 1.51
M11R | 2.16
M11K | 2.38

Variant | protein stability index
M11F | 2.49
M11G | 3.37
M11Y | 3.28
M11T | 2.09
M11H | 2.31
M11A | 1.75
M11S | 2.19
M11Q | 2.14
M11N | 2.06
M11I | 1.97
M11C | 3.65
M11E | 2.27
M11P | 1.85
M11D | 2.21
M11V | 2.09
T13V | 2.68
T13W | 3.26
T13C | 1.13
T13Q | 2.06
T13I | 2.75
T13H | 1.83
T13G | 2.33
T13Y | 3.56
T13F | 3.1
T13R | 1.64

Variant | protein stability index
T13K | 1.51
T13A | 2.88
T13M | 3.37
T13S | 2.01
T13E | 2.06
T13L | 2.99
T13D | 2.74
T13P | 2.06
T13N | 2.25
G20V | 2.89
G20I | 3
G20C | 2.06
G20Y | 3.45
G20F | 2.39
G20K | 1.61
G20W | 1.9
G20S | 3.02
G20N | 2.19
G20T | 2.89
G20D | 2.18
G20H | 2.56
G20E | 3.23
G20Q | 2.14
G20R | 3.81
G20A | 2.49

Variant | protein stability index
G20L | 3.19
G20P | 2.25
F15G | 1.61
F15L | 2.21
F15N | 1.55
F15D | 2.47
F15S | 2.49
F15P | 1.52
F15K | 2.01
F15V | 2.08
F15E | 2.27
F15Y | 2.28
F15A | 2.35
F15H | 2.39
F15R | 2.93
F15M | 2.26
F15I | 2.88
F15Q | 1.53
F15W | 2.62
F15C | 1.96
F15T | 1.9
K12I | 2.98
K12G | 1.54
K12H | 2.87
K12Q | 2.43

Variant | protein stability index
K12N | 2.66
K12M | 3.75
K12R | 1.51
K12D | 2.29
K12A | 3.08
K12E | 2.22
K12V | 2.45
K12P | 5.14
K12W | 2.8
K12S | 4.72
K12C | 3.27
K12Y | 2.49
K12T | 2.98
K12F | 1.8
K12L | 2.72
S10D | 1.75
S10P | 1.54
S10C | 2.82
S10N | 2.53
S10A | 2.05
S10Q | 1.99
S10Y | 3.69
S10G | 2.28
S10L | 2
S10V | 2.62

Variant | protein stability index
S10M | 2.46
S10E | 3.28
S10R | 2.08
S10F | 2.93
S10I | 1.91
S10H | 2.71
R22D | 2.38
R22N | 2.38
R22K | 1.71
R22L | 3.28
R22P | 3.8
R22V | 2.33
R22I | 1.73
R22G | 1.45
R22A | 3.1
R22F | 1.87
R22Y | 3.17
R22M | 2.53
R22E | 2.82
R22H | 3.33
R22W | 1.93
R22T | 2.44
V24C | 2.83
V24N | 2.84
V24A | 2.04

Variant | protein stability index
V24E | 2.51
V24H | 1.61
V24M | 1.96
V24T | 1.8
V24F | 2.35
V24P | 2.64
V24I | 3.42
V24Y | 2.51
V24K | 1.71
V24L | 1.68
V24D | 1.63
V24G | 1.73
V24R | 1.69
V24S | 3.01
V24Q | 2.06
N16E | 2.21
N16T | 2.45
N16W | 3.85
N16A | 3.67
N16F | 3.37
N16S | 3.5
N16V | 3.22
N16H | 2.69
N16G | 3.06
N16D | 1.66

Variant | protein stability index
N16Y | 1.95
N16Q | 2.83
N16L | 2.23
N16M | 3.47
N16R | 1.53
N16C | 2.63
N16K | 3.06
H14T | 2.86
H14V | 3.57
H14G | 1.69
H14N | 1.74
H14E | 2.42
H14S | 2.44
H14P | 2.56
H14M | 3.15
H14W | 2.76
H14I | 2.29
H14R | 3.04
H14F | 2.8
H14K | 2.35
H14L | 2.88
H14Y | 2.75
H14D | 2.33
H14Q | 1.75
Q19K | 2.43

Variant | protein stability index
Q19D | 4.39
Q19F | 3.35
Q19S | 2.63
Q19C | 3.17
Q19V | 3.84
Q19G | 2.64
Q19T | 2.88
Q19M | 3.27
Q19L | 3.4
Q19R | 2.22
Q19W | 1.62
Q19E | 2.52
Q19Y | 3.25
Q19A | 2.23
Q19N | 2.92
Q19P | 3.02
Q19H | 2.65
Q19I | 3.54

Variants of: B2
Experiment: as above
Details: c terminus: a fixed tail appended

Variant | protein stability index
G2L | 1.66
G2P | 3.53
G2C | 2.8
G2D | 2.58
G2N | 4.75
G2S | 1.91
G2R | 3.47
G2K | 2.49
G2Y | 3.14
G2H | 2.47
G2Q | 2.66
G2I | 3.05
G2M | 2.57
G2E | 2.72
G2T | 4.66
F4V | 1.4
F4H | 2.83
F4Q | 2.72
F4I | 2.92
F4N | 3.28
F4Y | 4.54
F4M | 2.76

Variant | protein stability index
F4D | 2.95
F4E | 3.75
F4S | 3.69
F4P | 1.93
F4W | 2.2
S3T | 2.22
S3D | 4.93
S3V | 3.33
S3W | 2.82
S3R | 2.02
S3Y | 2.74
S3E | 1.34
S3H | 2.96
S3K | 2.55
S3I | 3.48
S3P | 2.19
Y1S | 4.07
Y1C | 3.63
Y1L | 1.73
Y1E | 1.92
Y1K | 3.54
Y1N | 1.77

Variant | protein stability index
Y1M | 1.87
Y1H | 2.79
Y1F | 3.22
Q6I | 3.08
Q6K | 3.09
Q6D | 2.55
Q6R | 3.54
Q6F | 2.94
Q6G | 2.41
Q6S | 2.86
Q6H | 2.7
Q6A | 3.19
Q6N | 3.97
H5Q | 2.37
H5D | 4.47
H5A | 2.77
H5P | 2.32
H5F | 2.61
H5Y | 3.26
H5R | 2.13
H5M | 1.77
H5I | 1.49
